Test results as given in patent US20210088528A1 (published 2021).

Tests used:
human PD-L1-His6 [1] = target: T1, human PD-L1-His6 (human, UniProt Q9NZQ7 19-238); assay: BLI (Octet RED96), PD-1-Fc on AHC biosensor, PD-L1-His6 in solution
T1 construct: extracellular domain; also called hPD-L1; B7-H1; not shown: His6 tag (by the name PD-L1-His6)
Protocol: (§1) BLI was performed on an Octet RED96® system at 30° C. in a buffer of 150 mM NaCl, 20 mM HEPES:NaOH pH 7.4, 0.1% BSA and 0.05% Tween 20. The human PD-1-Fc proteins were loaded onto anti-human IgG Fc capture (AHC) biosensors, associated in defined concentrations of human PD-L2-His6 or PD-L1-His6 proteins, and then dissociated in buffer.
(§2) Using bio-layer interferometry (BLI), the binding of PD-L2 to wild-type PD-1 and the variants was compared (data not shown). The binding of sensor-loaded PD-1 and the loop variants to 190 nM PD-L2 and 1.1 μM PD-L1 was measured using biolayer interferometry. Corresponding PD-1-Fc proteins were loaded on anti-human IgG Fc capture (AHC) biosensors. Association was monitored for 2 min and dissociation for 2 min. Fitting of binding curves was performed in Graphpad Prism 8 software using built-in equations of “Receptor binding—kinetics” models. Means and standard deviations were calculated from 3-4 independent experiments. […] Fitting of binding curves was performed in Graphpad Prism 8 using built-in equations of “Receptor binding—kinetics” models. Means and standard deviations were calculated from 3-4 independent experiments. […] Kinetic measurements of binding of the ligands by PD-1 with BLI also permitted the determination of association constants (kₒₙ).

human PD-L2-His6 [2] = target: T2, human PD-L2-His6 (human, UniProt Q9BQ51 20-220); assay: BLI (Octet RED96), PD-1-Fc on AHC biosensor, PD-L2-His6 in solution
T2 construct: extracellular domain; also called hPD-L2; B7-DC; not shown: His6 tag (by the name PD-L2-His6)
T2 sequence (looked up): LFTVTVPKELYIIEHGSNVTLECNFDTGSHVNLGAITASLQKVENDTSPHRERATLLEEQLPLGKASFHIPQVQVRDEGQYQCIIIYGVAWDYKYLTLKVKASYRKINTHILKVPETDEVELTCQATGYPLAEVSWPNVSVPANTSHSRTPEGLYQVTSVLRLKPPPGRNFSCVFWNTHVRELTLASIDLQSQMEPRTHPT
Protocol: as §1, §2

human PD-L1-His6 [3] = target: T1, human PD-L1-His6; assay: BLI, PD-1-Fc on AHC biosensor
Protocol: as §1, §2

human PD-L2-His6 [4] = target: T2, human PD-L2-His6; assay: BLI, PD-1-Fc on AHC biosensor
Protocol: as §1, §2

T1 sequence (Q9NZQ7 19-238): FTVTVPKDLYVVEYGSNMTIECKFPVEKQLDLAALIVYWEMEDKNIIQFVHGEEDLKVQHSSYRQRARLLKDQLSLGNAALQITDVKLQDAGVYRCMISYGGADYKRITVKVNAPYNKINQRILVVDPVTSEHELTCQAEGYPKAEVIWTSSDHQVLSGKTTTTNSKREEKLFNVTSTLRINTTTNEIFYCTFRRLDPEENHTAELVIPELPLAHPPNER

- Kd (human PD-L1-His6 [1]): 72 nM
- koff (human PD-L1-His6 [1]): 0.036 s⁻¹
- kon (human PD-L1-His6 [1]): 520000 M⁻¹ s⁻¹
- Kd (human PD-L2-His6 [2]): 2.6 nM
- koff (human PD-L2-His6 [2]): 0.0014 s⁻¹
- kon (human PD-L2-His6 [2]): 580000 M⁻¹ s⁻¹
- fold increase of kon against wild-type PD-1 (human PD-L1-His6 [3]): 14 fold
- fold increase in binding affinity against wild-type PD-1 (human PD-L2-His6 [4]): ~200 fold
- fold increase of kon against wild-type PD-1 (human PD-L2-His6 [4]): 3 fold
B1: human PD-1-Fc N74G T76P A132V (Fc fusion)
chain: PGWFLDSPDRPWNPPTFSPALLVVTEGDNATFTCSFSNTSESFVLNWYRMSPSGQPDKLAAFPEDRSQPGQDCRFRVTQLPNGRDFHMSVVRARRNDSGTYLCGAISLAPKVQIKESLRAELRVTERRAE
notes: also called PD-1 triple mutant; triple-mutant; not shown: Fc portion
